We go through 19 variants from the supplement of paper PMC10266784.

B1: library; numbered along this chain (parent)
chain: MAAAAAAAAEQQSSNGPVKKSMREKAVERRSVNKEHNSNFKAGYIPIDEDRLHKTGLRGRKGNLAICVIILLFILAVINLIITLVIWAVIRIGPNGCDSMEFHESGLLRFKQVSDMGVIHPLYKSTVGGRRNENLVITGNNQPIVFQQGTTKLSVENNKTSITSDIGMQFFDPRTQNILFSTDYETHEFHLPSGVKSLNVQKASTERITSNATSDLNIKVDGRAIVRGNEGVFIMGKTIEFHMGGNMELKAENSIILNGSVMVSTTRLPSSSSGDQLGSGDWVRYKLCMCADGTLFKVQVTSQNMGCQISDNPCGNTH

The variants in this series derive from B1. Nature of the series: SGCB cell-surface expression functional score (HA stain, bin4 vs bin1, normalised to synonymous) (log10 ratio); higher = more cell-surface SGCB (functional). In a few lines:
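The functional score is a log ratio of variant frequency in the highest versus the lowest intensity bin, expressed as a median over codons and duplicate transductions. Codon-saturation libraries of HA-tagged, YFP-fused human beta-sarcoglycan were transduced by lentivirus at MOI <0.1 into HEK293 cells stably expressing alpha-, gamma- and delta-sarcoglycan, and the cells were stained on ice with Alexa Fluor 647 anti-HA, fixed and sorted into four 5% intensity bins before amplicon sequencing. Synonymous variants were scaled to mean 0, SD 0.5 within each section.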
For the variant MAAAAAAAAEQQSSNGPVKKSMREKAVERRSVNKEHNSNFKAGYIPIDEDRLHKTGLRGRKGNLAICVIILLFILAVINLIITLVIWAVIRIGPNGCDSMEFHESGLLRFKQVSDMGVIHPLYKSTVGGRRNENLVITGNNQPIVFQQGTTKLSVENNKTSITSDIGMQFFDPRTQNILFSTDYETHEFHLPSGVKSLNVQKASTERITSNATSDLNIKVDGRAIVRGNEGVFIMGKTIEFHMGGNMELKAENSIILNGSVMVSTTRLPSSSSGDQLGSGDWVRYKLCMCADGTLFKVQKTSQNMGCQISDNPCGNTH [V300K], the “SGCB cell-surface expression functional score (log10)” value was -2.02.
In the case of MAAAAAAAAEQQSSNGPVKKSMREKAVERRSVNKEHNSNFKAGYIPIDEDRLHKTGLRGRKGNLAICVIILLFILAVINLIITLVIWAVIRIGPNGCDSMEFHESGLLRFKQVSDMGVIHPLYKSTVGGRRNENLVITGNNQPIVFQQGTTKLSVENNKTSITSDIGMQFFDPRTQNILFSTDYETHEFHLPSGVKSLNVQKASTERITSNATSDLNIKVDGRAIVRGNEGVFIMGKTIEFHMGGNMELKAENSIILNGSVMVSTTRLPSSSSGDQLGSGDWVRYKLCMCADGTLFKVQGTSQNMGCQISDNPCGNTH [V300G], the “SGCB cell-surface expression functional score (log10)” value is -0.65.
In the case of MAAAAAAAAEQQSSNGPVKKSMREKAVERRSVNKEHNSNFKAGYIPIDEDRLHKTGLRGRKGNLAICVIILLFILAVINLIITLVIWAVIRIGPNGCDSMEFHESGLLRFKQVSDMGVIHPLYKSTVGGRRNENLVITGNNQPIVFQQGTTKLSVENNKTSITSDIGMQFFDPRTQNILFSTDYETHEFHLPSGVKSLNVQKASTERITSNATSDLNIKVDGRAIVRGNEGVFIMGKTIEFHMGGNMELKAENSIILNGSVMVSTTRLPSSSSGDQLGSGDWVRYKLCMCADGTLFKVQITSQNMGCQISDNPCGNTH [V300I] it was -0.28; in that of MAAAAAAAAEQQSSNGPVKKSMREKAVERRSVNKEHNSNFKAGYIPIDEDRLHKTGLRGRKGNLAICVIILLFILAVINLIITLVIWAVIRIGPNGCDSMEFHESGLLRFKQVSDMGVIHPLYKSTVGGRRNENLVITGNNQPIVFQQGTTKLSVENNKTSITSDIGMQFFDPRTQNILFSTDYETHEFHLPSGVKSLNVQKASTERITSNATSDLNIKVDGRAIVRGNEGVFIMGKTIEFHMGGNMELKAENSIILNGSVMVSTTRLPSSSSGDQLGSGDWVRYKLCMCADGTLFKVQMTSQNMGCQISDNPCGNTH [V300M], -1.6.
The figure for MAAAAAAAAEQQSSNGPVKKSMREKAVERRSVNKEHNSNFKAGYIPIDEDRLHKTGLRGRKGNLAICVIILLFILAVINLIITLVIWAVIRIGPNGCDSMEFHESGLLRFKQVSDMGVIHPLYKSTVGGRRNENLVITGNNQPIVFQQGTTKLSVENNKTSITSDIGMQFFDPRTQNILFSTDYETHEFHLPSGVKSLNVQKASTERITSNATSDLNIKVDGRAIVRGNEGVFIMGKTIEFHMGGNMELKAENSIILNGSVMVSTTRLPSSSSGDQLGSGDWVRYKLCMCADGTLFKVQPTSQNMGCQISDNPCGNTH [V300P] is -0.35.
With MAAAAAAAAEQQSSNGPVKKSMREKAVERRSVNKEHNSNFKAGYIPIDEDRLHKTGLRGRKGNLAICVIILLFILAVINLIITLVIWAVIRIGPNGCDSMEFHESGLLRFKQVSDMGVIHPLYKSTVGGRRNENLVITGNNQPIVFQQGTTKLSVENNKTSITSDIGMQFFDPRTQNILFSTDYETHEFHLPSGVKSLNVQKASTERITSNATSDLNIKVDGRAIVRGNEGVFIMGKTIEFHMGGNMELKAENSIILNGSVMVSTTRLPSSSSGDQLGSGDWVRYKLCMCADGTLFKVQWTSQNMGCQISDNPCGNTH [V300W], the “SGCB cell-surface expression functional score (log10)” value is -0.26.
For the variant MAAAAAAAAEQQSSNGPVKKSMREKAVERRSVNKEHNSNFKAGYIPIDEDRLHKTGLRGRKGNLAICVIILLFILAVINLIITLVIWAVIRIGPNGCDSMEFHESGLLRFKQVSDMGVIHPLYKSTVGGRRNENLVITGNNQPIVFQQGTTKLSVENNKTSITSDIGMQFFDPRTQNILFSTDYETHEFHLPSGVKSLNVQKASTERITSNATSDLNIKVDGRAIVRGNEGVFIMGKTIEFHMGGNMELKAENSIILNGSVMVSTTRLPSSSSGDQLGSGDWVRYKLCMCADGTLFKVQSTSQNMGCQISDNPCGNTH [V300S], the “SGCB cell-surface expression functional score (log10)” value is -0.35.
The figure for MAAAAAAAAEQQSSNGPVKKSMREKAVERRSVNKEHNSNFKAGYIPIDEDRLHKTGLRGRKGNLAICVIILLFILAVINLIITLVIWAVIRIGPNGCDSMEFHESGLLRFKQVSDMGVIHPLYKSTVGGRRNENLVITGNNQPIVFQQGTTKLSVENNKTSITSDIGMQFFDPRTQNILFSTDYETHEFHLPSGVKSLNVQKASTERITSNATSDLNIKVDGRAIVRGNEGVFIMGKTIEFHMGGNMELKAENSIILNGSVMVSTTRLPSSSSGDQLGSGDWVRYKLCMCADGTLFKVQETSQNMGCQISDNPCGNTH [V300E] is -0.69; for MAAAAAAAAEQQSSNGPVKKSMREKAVERRSVNKEHNSNFKAGYIPIDEDRLHKTGLRGRKGNLAICVIILLFILAVINLIITLVIWAVIRIGPNGCDSMEFHESGLLRFKQVSDMGVIHPLYKSTVGGRRNENLVITGNNQPIVFQQGTTKLSVENNKTSITSDIGMQFFDPRTQNILFSTDYETHEFHLPSGVKSLNVQKASTERITSNATSDLNIKVDGRAIVRGNEGVFIMGKTIEFHMGGNMELKAENSIILNGSVMVSTTRLPSSSSGDQLGSGDWVRYKLCMCADGTLFKVQTTSQNMGCQISDNPCGNTH [V300T] it is 0.05; for MAAAAAAAAEQQSSNGPVKKSMREKAVERRSVNKEHNSNFKAGYIPIDEDRLHKTGLRGRKGNLAICVIILLFILAVINLIITLVIWAVIRIGPNGCDSMEFHESGLLRFKQVSDMGVIHPLYKSTVGGRRNENLVITGNNQPIVFQQGTTKLSVENNKTSITSDIGMQFFDPRTQNILFSTDYETHEFHLPSGVKSLNVQKASTERITSNATSDLNIKVDGRAIVRGNEGVFIMGKTIEFHMGGNMELKAENSIILNGSVMVSTTRLPSSSSGDQLGSGDWVRYKLCMCADGTLFKVQQTSQNMGCQISDNPCGNTH [V300Q] it is -1.07.
In the case of MAAAAAAAAEQQSSNGPVKKSMREKAVERRSVNKEHNSNFKAGYIPIDEDRLHKTGLRGRKGNLAICVIILLFILAVINLIITLVIWAVIRIGPNGCDSMEFHESGLLRFKQVSDMGVIHPLYKSTVGGRRNENLVITGNNQPIVFQQGTTKLSVENNKTSITSDIGMQFFDPRTQNILFSTDYETHEFHLPSGVKSLNVQKASTERITSNATSDLNIKVDGRAIVRGNEGVFIMGKTIEFHMGGNMELKAENSIILNGSVMVSTTRLPSSSSGDQLGSGDWVRYKLCMCADGTLFKVQDTSQNMGCQISDNPCGNTH [V300D] it was -0.2; in that of MAAAAAAAAEQQSSNGPVKKSMREKAVERRSVNKEHNSNFKAGYIPIDEDRLHKTGLRGRKGNLAICVIILLFILAVINLIITLVIWAVIRIGPNGCDSMEFHESGLLRFKQVSDMGVIHPLYKSTVGGRRNENLVITGNNQPIVFQQGTTKLSVENNKTSITSDIGMQFFDPRTQNILFSTDYETHEFHLPSGVKSLNVQKASTERITSNATSDLNIKVDGRAIVRGNEGVFIMGKTIEFHMGGNMELKAENSIILNGSVMVSTTRLPSSSSGDQLGSGDWVRYKLCMCADGTLFKVQNTSQNMGCQISDNPCGNTH [V300N], -0.77.
In the case of MAAAAAAAAEQQSSNGPVKKSMREKAVERRSVNKEHNSNFKAGYIPIDEDRLHKTGLRGRKGNLAICVIILLFILAVINLIITLVIWAVIRIGPNGCDSMEFHESGLLRFKQVSDMGVIHPLYKSTVGGRRNENLVITGNNQPIVFQQGTTKLSVENNKTSITSDIGMQFFDPRTQNILFSTDYETHEFHLPSGVKSLNVQKASTERITSNATSDLNIKVDGRAIVRGNEGVFIMGKTIEFHMGGNMELKAENSIILNGSVMVSTTRLPSSSSGDQLGSGDWVRYKLCMCADGTLFKVQRTSQNMGCQISDNPCGNTH [V300R], the “SGCB cell-surface expression functional score (log10)” value is -0.27.
In the case of MAAAAAAAAEQQSSNGPVKKSMREKAVERRSVNKEHNSNFKAGYIPIDEDRLHKTGLRGRKGNLAICVIILLFILAVINLIITLVIWAVIRIGPNGCDSMEFHESGLLRFKQVSDMGVIHPLYKSTVGGRRNENLVITGNNQPIVFQQGTTKLSVENNKTSITSDIGMQFFDPRTQNILFSTDYETHEFHLPSGVKSLNVQKASTERITSNATSDLNIKVDGRAIVRGNEGVFIMGKTIEFHMGGNMELKAENSIILNGSVMVSTTRLPSSSSGDQLGSGDWVRYKLCMCADGTLFKVQLTSQNMGCQISDNPCGNTH [V300L] it was -1.14; in that of MAAAAAAAAEQQSSNGPVKKSMREKAVERRSVNKEHNSNFKAGYIPIDEDRLHKTGLRGRKGNLAICVIILLFILAVINLIITLVIWAVIRIGPNGCDSMEFHESGLLRFKQVSDMGVIHPLYKSTVGGRRNENLVITGNNQPIVFQQGTTKLSVENNKTSITSDIGMQFFDPRTQNILFSTDYETHEFHLPSGVKSLNVQKASTERITSNATSDLNIKVDGRAIVRGNEGVFIMGKTIEFHMGGNMELKAENSIILNGSVMVSTTRLPSSSSGDQLGSGDWVRYKLCMCADGTLFKVQHTSQNMGCQISDNPCGNTH [V300H], -0.8; in that of MAAAAAAAAEQQSSNGPVKKSMREKAVERRSVNKEHNSNFKAGYIPIDEDRLHKTGLRGRKGNLAICVIILLFILAVINLIITLVIWAVIRIGPNGCDSMEFHESGLLRFKQVSDMGVIHPLYKSTVGGRRNENLVITGNNQPIVFQQGTTKLSVENNKTSITSDIGMQFFDPRTQNILFSTDYETHEFHLPSGVKSLNVQKASTERITSNATSDLNIKVDGRAIVRGNEGVFIMGKTIEFHMGGNMELKAENSIILNGSVMVSTTRLPSSSSGDQLGSGDWVRYKLCMCADGTLFKVQYTSQNMGCQISDNPCGNTH [V300Y], -0.33.
In the case of MAAAAAAAAEQQSSNGPVKKSMREKAVERRSVNKEHNSNFKAGYIPIDEDRLHKTGLRGRKGNLAICVIILLFILAVINLIITLVIWAVIRIGPNGCDSMEFHESGLLRFKQVSDMGVIHPLYKSTVGGRRNENLVITGNNQPIVFQQGTTKLSVENNKTSITSDIGMQFFDPRTQNILFSTDYETHEFHLPSGVKSLNVQKASTERITSNATSDLNIKVDGRAIVRGNEGVFIMGKTIEFHMGGNMELKAENSIILNGSVMVSTTRLPSSSSGDQLGSGDWVRYKLCMCADGTLFKVQFTSQNMGCQISDNPCGNTH [V300F] it was -0.2; in that of MAAAAAAAAEQQSSNGPVKKSMREKAVERRSVNKEHNSNFKAGYIPIDEDRLHKTGLRGRKGNLAICVIILLFILAVINLIITLVIWAVIRIGPNGCDSMEFHESGLLRFKQVSDMGVIHPLYKSTVGGRRNENLVITGNNQPIVFQQGTTKLSVENNKTSITSDIGMQFFDPRTQNILFSTDYETHEFHLPSGVKSLNVQKASTERITSNATSDLNIKVDGRAIVRGNEGVFIMGKTIEFHMGGNMELKAENSIILNGSVMVSTTRLPSSSSGDQLGSGDWVRYKLCMCADGTLFKVQVASQNMGCQISDNPCGNTH [T301A], -0.27.
Regarding MAAAAAAAAEQQSSNGPVKKSMREKAVERRSVNKEHNSNFKAGYIPIDEDRLHKTGLRGRKGNLAICVIILLFILAVINLIITLVIWAVIRIGPNGCDSMEFHESGLLRFKQVSDMGVIHPLYKSTVGGRRNENLVITGNNQPIVFQQGTTKLSVENNKTSITSDIGMQFFDPRTQNILFSTDYETHEFHLPSGVKSLNVQKASTERITSNATSDLNIKVDGRAIVRGNEGVFIMGKTIEFHMGGNMELKAENSIILNGSVMVSTTRLPSSSSGDQLGSGDWVRYKLCMCADGTLFKVQVCSQNMGCQISDNPCGNTH [T301C], the “SGCB cell-surface expression functional score (log10)” value was determined as 0.31.
